Laboratory results taken from paper PMC11997252.

Columns and labels:
Conditions in all cases: glycan lost; control: Fzd4 WT
[1] = cycloheximide chase, Western blot, HEK293T
[2] = plasma membrane fractionation, Western blot
[3] = SNAP-tag staining with membrane-impermeant dye
[4] = immunofluorescence co-localisation with ER marker CANX
[5] = surface biotinylation, streptavidin pull-down, HEK293T

B1: Fzd4: N59/144Q (protein)
parent chain: MAWRGAGPSVPGAPGGVGLSLGLLLQLLLLLGPARGFGDEEERRCDPIRISMCQNLGYNVTKMPNLVGHELQTDAELQLTTFTPLIQYGCSSQLQFFLCSVYVPMCTEKINIPIGPCGGMCLSVKRRCEPVLKEFGFAWPESLNCSKFPPQNDHNHMCMEGPGDEEVPLPHKTPIQPGEECHSVGTNSDQYIWVKRSLNCVLKCGYDAGLYSRSAKEFTDIWMAVWASLCFISTAFTVLTFLIDSSRFSYPERPIIFLSMCYNIYSIAYIVRLTVGRERISCDFEEAAEPVLIQEGLKNTGCAIIFLLMYFFGMASSIWWVILTLTWFLAAGLKWGHEAIEMHSSYFHIAAWAIPAVKTIVILIMRLVDADELTGLCYVGNQNLDALTGFVVAPLFTYLVIGTLFIAAGLVALFKIRSNLQKDGTKTDKLERLMVKIGVFSVLYTVPATCVIACYFYEISNWALFRYSADDSNMAVEMLKIFMSLLVGITSGMWIWSAKTLHTWQKCSNRLVNSGKVKREKRGNGWVKPGKGSETVV
With B1 the degradation_or_half_life [1] was “decreases”, the localisation_or_trafficking [2] was “abolishes” and the localisation_or_trafficking [3] was “abolishes”. For the same protein, the localisation_or_trafficking [4] was “changes” and the localisation_or_trafficking [5] was “abolishes”.

B2: Fzd4: N144Q (protein)
parent chain: MAWRGAGPSVPGAPGGVGLSLGLLLQLLLLLGPARGFGDEEERRCDPIRISMCQNLGYNVTKMPNLVGHELQTDAELQLTTFTPLIQYGCSSQLQFFLCSVYVPMCTEKINIPIGPCGGMCLSVKRRCEPVLKEFGFAWPESLNCSKFPPQNDHNHMCMEGPGDEEVPLPHKTPIQPGEECHSVGTNSDQYIWVKRSLNCVLKCGYDAGLYSRSAKEFTDIWMAVWASLCFISTAFTVLTFLIDSSRFSYPERPIIFLSMCYNIYSIAYIVRLTVGRERISCDFEEAAEPVLIQEGLKNTGCAIIFLLMYFFGMASSIWWVILTLTWFLAAGLKWGHEAIEMHSSYFHIAAWAIPAVKTIVILIMRLVDADELTGLCYVGNQNLDALTGFVVAPLFTYLVIGTLFIAAGLVALFKIRSNLQKDGTKTDKLERLMVKIGVFSVLYTVPATCVIACYFYEISNWALFRYSADDSNMAVEMLKIFMSLLVGITSGMWIWSAKTLHTWQKCSNRLVNSGKVKREKRGNGWVKPGKGSETVV
For B2, the degradation_or_half_life [1] was “decreases”, the localisation_or_trafficking [2] was “abolishes” and the localisation_or_trafficking [3] was “abolishes”. For the same protein, the localisation_or_trafficking [5] was “abolishes”.

B3: Fzd4: N59Q (protein)
parent chain: MAWRGAGPSVPGAPGGVGLSLGLLLQLLLLLGPARGFGDEEERRCDPIRISMCQNLGYNVTKMPNLVGHELQTDAELQLTTFTPLIQYGCSSQLQFFLCSVYVPMCTEKINIPIGPCGGMCLSVKRRCEPVLKEFGFAWPESLNCSKFPPQNDHNHMCMEGPGDEEVPLPHKTPIQPGEECHSVGTNSDQYIWVKRSLNCVLKCGYDAGLYSRSAKEFTDIWMAVWASLCFISTAFTVLTFLIDSSRFSYPERPIIFLSMCYNIYSIAYIVRLTVGRERISCDFEEAAEPVLIQEGLKNTGCAIIFLLMYFFGMASSIWWVILTLTWFLAAGLKWGHEAIEMHSSYFHIAAWAIPAVKTIVILIMRLVDADELTGLCYVGNQNLDALTGFVVAPLFTYLVIGTLFIAAGLVALFKIRSNLQKDGTKTDKLERLMVKIGVFSVLYTVPATCVIACYFYEISNWALFRYSADDSNMAVEMLKIFMSLLVGITSGMWIWSAKTLHTWQKCSNRLVNSGKVKREKRGNGWVKPGKGSETVV
For B3, the degradation_or_half_life [1] was “decreases”, the localisation_or_trafficking [2] was “abolishes” and the localisation_or_trafficking [3] was “abolishes”. The localisation_or_trafficking [5] was “abolishes”.
